Data on four molecules can be found in patent US9096835B2, “DNA polymerase” (Medical Research Council, priority 2003, dated 2015).

In test [1] the test system is 215 bp fragment from the cytochrome B gene in the mitochondrial genome. In words: Ancient DNA PCR, cave hyena samples. The test is classed as biochemical, cave hyena (Crocuta spelaea). Conditions: on two separate occasions. The text has this: FIG. 12. Several samples of cave hyena (Crocuta spelaea) were extracted and analysed. The seven samples were from Teufelslucke cave (Austria, 40 000 years old), Aufhausener Höhle (Germany, no date determined (2 samples)); Irpfelhöhle (Germany, no date determined); Kiskevelyi ([…] 48 500 years old); Miskolc III (Hungary, 44 000 years old); Mala ladnica (Slovakia, no date determined). The target was a 215 bp fragment from the cytochrome B gene in the mitochondrial genome. The amplification was only successful in the presence of sspDNA.
Several samples of cave hyena (Crocuta spelaea) were extracted and analysed. […] These samples were chosen to test the efficacy of the expanded substrate spectrum polymerases.
Therefore, M1 was blended with a commercial preparation of Taq (SuperTaq (HT biotechnology Ltd)) in a ratio of 1 unit to 10 and compared to Taq in the absence of M1. It was hoped that if M1 could bypass the blocking lesions, then the wild type Taq would amplify the resulting translesion synthesis product.

Test [2] relates to template containing 5-Nitroindole. Put plainly: Primer extension opposite 5-nitroindole. Conditions: for ability to replicate 5NI: clones from five rounds of selection. The test is classed as biochemical. As to the method: 50 pmol of ^32P-labelled primer and 100 pmol of template in a volume of 44 μl were annealed in 1× Taq buffer. 4D11 or 5D4 polymerase as cell lysate (6 μl) was added and reactions were incubated at 50° C. for 15 minutes followed by addition of one dNTP (1 μl in total volume of 50 μl, final dNTP concentration 40 μM). 8 μl samples were taken at various time points and added to 8 μl stop solution (7M urea, 100 mM EDTA containing xylene cyanol F). At the end of the time course the remaining 3 dNTPs were added (final concentration each dNTP 40 μM) and reactions incubated at 50° C. for a further 30 minutes. Reaction samples were electrophoretically separated using 20% polyacrylamide gels at 25 W for 4 hours. The resultant gels were dried and scanned using a phosphorimager (Molecular Dynamics). Data was processed using the program ImageQuant (Molecular Dynamics).

Test [3] in a line: Incorporation and extension of 5-nitroindole-5′-triphosphate. The test is classed as biochemical. The settings on record: 50° C., identical conditions as 4D11 and 5D4; data not shown. On the procedure: 50 pmol of ^32P-labelled primer and 100 pmol of template in a volume of 44 μl were annealed in 1× Taq buffer. 4D11 or 5D4 polymerase as cell lysate (6 μl) was added and reactions were incubated at 50° C. for 15 minutes followed by addition of d5NITP (1 μl in total volume of 50 µL final dNTP concentration 40 μM). 8 μl samples were taken at various time points and added to 8 μl stop solution (7M urea, 100 mM EDTA containing xylene cyanol F). At the end of the time course the 4 native dNTPs were added (final concentration each dNTP 40 μM) and reactions incubated at 50° C. for a further 30 minutes.

As for “SuperTaq: commercial preparation of Taq (HT biotechnology Ltd)”, the “amplification of previously un-amplifiable cave hyena DNA” value in test [1] is reported as “did not”.

B1: Tth: Thermus thermophilus (Tth) wild-type polymerase (protein, UniProt P52028 1-834, looked up)
DNA polymerase I, thermostable: MEAMLPLFEPKGRVLLVDGHHLAYRTFFALKGLTTSRGEPVQAVYGFAKSLLKALKEDGYKAVFVVFDAKAPSFRHEAYEAYKAGRAPTPEDFPRQLALIKELVDLLGFTRLEVPGYEADDVLATLAKKAEKEGYEVRILTADRDLYQLVSDRVAVLHPEGHLITPEWLWEKYGLRPEQWVDFRALVGDPSDNLPGVKGIGEKTALKLLKEWGSLENLLKNLDRVKPENVREKIKAHLEDLRLSLELSRVRTDLPLEVDLAQGREPDREGLRAFLERLEFGSLLHEFGLLEAPAPLEEAPWPPPEGAFVGFVLSRPEPMWAELKALAACRDGRVHRAADPLAGLKDLKEVRGLLAKDLAVLASREGLDLVPGDDPMLLAYLLDPSNTTPEGVARRYGGEWTEDAAHRALLSERLHRNLLKRLEGEEKLLWLYHEVEKPLSRVLAHMEATGVRLDVAYLQALSLELAEEIRRLEEEVFRLAGHPFNLNSRDQLERVLFDELRLPALGKTQKTGKRSTSAAVLEALREAHPIVEKILQHRELTKLKNTYVDPLPSLVHPRTGRLHTRFNQTATATGRLSSSDPNLQNIPVRTPLGQRIRRAFVAEAGWALVALDYSQIELRVLAHLSGDENLIRVFQEGKDIHTQTASWMFGVPPEAVDPLMRRAAKTVNFGVLYGMSAHRLSQELAIPYEEAVAFIERYFQSFPKVRAWIEKTLEEGRKRGYVETLFGRRRYVPDLNARVKSVREAAERMAFNMPVQGTAADLMKLAMVKLFPRLREMGARMLLQVHDELLLEAPQARAEEVAALAKEAMEKAYPLAVPLEVEVGMGEDWLSAKG
Take B1: in test [2] (50° C., cell lysate, identical conditions as 4D11 and 5D4, data not shown), the “extension opposite 5-nitroindole” value is reported as “almost undetectable extension reactions”. Further, in test [3], the “incorporation and extension of d5NITP” value is reported as “almost undetectable extension reactions”.

B2: 5D4: round 5 clone selected for replication of 5NI; SEQ ID NO: 109 (protein)
chain: MAMLPLFEPKGRVLLVDGHHLAYRTFFALKGLTTSRGEPVQAVYGFAKSLLKALKEDGYKAIFVVFDAKAPSFRHEAHEAYKAGRAPSPEDFPRQLALIKELVDLLGFTRLEVQGYEADDVLATLAKKAEKEGYEVRILTADRDLYQLVSDRVAVLHPEGHLITPEWLWEKYGLRPEQWVDFRALVGDPSDNLPGVKGIGEKTALKLLKEWGSLENLLKNLDRLKPAIREKILAHMDDLKLSWDLAKVRTDLPLEVDFAKRRESDRERLRAFLERLEFGSLLHEFGLLESPKALEEAPWPPPVGAFVGFVLSRKEPMWADLLALAAARGGRVHRAPEPYKALRDLKEARGLLAKDLSVLALREGLGLPPGDDPMLLAYLLDPSNTTPEVVARRYGGEWTEEAGERAALSERLFANLWGRLEGEGRLLWLYRGVERPLSAVLAHMEATGVRLDVAYLRALSLEVAEEIARLEAEVFRLAGHPFNLNSRDQLERVLFDELGLPAIGKTEKTGKRSTSAAVLEALREAHPIVEKILQYRELTKLKSTYIDPLPDLIHPRTGRLHTRFNQTATATGRLSSSDPNLQNIPVRTPLGQRIRRAFIAEGGWLLVVLDYSQMELRVLAHLSGDENLIRVFQEGRDIHTETASWMFGVPREAVDPLMRRAAKTINFGVLYGMSAHRLSQELAIPYEEAQAFIERYFQSFPKVRAWIEKTLEEGRKRGYVETLFGRRRYVPDLNARVKSVREAAERMAFNMPVQGTAADLTKLAMVKLFPRLEETGARMLLQVHDELVLEAPKERAEAVARLAKEVMEGVYPLAVPLEVEVGIGEDWLSAKG
modifications: Mutant Taq polymerase
As to B2, in test [2], the “ability to replicate 5NI” value is recorded as “greatly increased ability to replicate 5NI”.

B3: 4D11: round 4 clone selected for replication of 5NI; SEQ ID NO: 107 (protein)
chain: MAMLPLFEPKGRVLLVDGHHLAYRTFFALKGLTTSRGEPVQAVYGFAKSLLKALKEDGYKAVFVVFDAKAPSFRHEAYEAYKAGRAPTPEDFPRQLALIKELVDLLGFTRLEVQGYEADDVLATLAKKAEKEGYEVRILTADRDLYQLVSDRVAVLHPEGHLITPEWLWEKYGLRPEQWVDFRALVGDPSDNLPGIKGIGEKTALKLLKEWGSLENLLKNLDRVKPENVREKIKAHLEDLRLSLELSRVRTDLPLEVDFAKRREPDRERLRAFLERLEFGSLLHEFGLLESPKALEEAPWPPPEGAFVGFVLSRKEPMWADLLALAAAKGGRVHRAPEPYKALRDLKEARGLLAKDLSVLALREGLGLPPGDDPMLLAYLLDPSNTTPEGVARRYGGEWTEEAGERAALSERLFANLWGRLEGEERLLWLYREVERPLSAVLAHMEATGVRLDVAYLRALSLEVAEEIARLEAEVFRLAGHPFNLNSRDQLERVLFDELGLPAIGKTEKTGKRSTSAAVLEALREAHPIVEKILQYRELTKLKSTYIDPLPDLIHPRTGRLHTRFNQTATATGRLSSSDPNLQNIPVRTPLGQRIRRAFIAEGGWLLVVLDYSQMELRVLAHLSGDENLIRVFQEGRDIHTETASWMFGVPREAVDPLMRRAAKTINFGVLYGMSAHRLSQELAIPYEEAQAFIERYFQSFPKVRAWIEKTLEEGRRRGYVETLFGRRRYVPDLEARVKSVREAAERMAFNMPVQGTAADLMKLAMVKLFPRLEETGARMLLQVHDELVLEAPKERAEAVARLAKEVMEGVYPLAVPLEVEVGIGEDWLSAKE
modifications: Mutant Taq polymerase
B3: the “ability to replicate 5NI” value in test [2] is reported as “greatly increased ability to replicate 5NI”.
